B1: Spc34 subunit of the Dam1 complex (natural protein, S. cerevisiae, UniProt P36131 1-295, looked up)
chain: MGESLDRCIDDINRAVDSMSTLYFKPPGIFHNAILQGASNKASIRKDITRLIKDCNHDEAYLLFKVNPEKQSVSRRDGKEGVFDYVIKRDTDMKRNRRLGRPGEKPIIHVPKEVYLNKDRLDLNNKRRRTATTSGGGLNGFIFDTDLIGSSVISNSSSGTFKALSAVFKDDPQIQRLLYALENGSVLMEEESNNQRRKTIFVEDFPTDLILKVMAEVTDLWPLTEFKQDYDQLYHNYEQLSSKLRFIKKEVLLQDDRLKTMSQYHPSSSHDVAKIIRKEKDEIRRLEMEIANLQE
notes: Spc34 subunit of the S. cerevisiae Dam1 complex; Stood in the structure as part of the whole Dam1 complex; source: as subunit of m2
B2: Dad4 subunit of the Dam1 complex (natural protein, S. cerevisiae, UniProt P69851 1-72, looked up)
chain: MENPHEQVQANILSRIIGNVKRLNESVAILNQELVTINNRNKNLEIMGAICDNYHSSVQFNLEATNNKKPPL
notes: Dad4 subunit of the S. cerevisiae Dam1 complex; Stood in the structure as part of the whole Dam1 complex; also called Dad4^B; source: as subunit of m2
B3: Ask1 subunit of the Dam1 complex (natural protein, S. cerevisiae, UniProt P35734 1-292, looked up)
chain: MDSASKEETLEKLDQEITVNLQKIDSNLSFCFHKITQDIIPHVATYSEICERIMDSTEWLGTMFQETGLVNLQANAAAPVGNAPVKSLVSNNVGIFPTSAEEASRQSQTDNGPNEADSAVHVNRDVHSMFNNDSIDDFHTANITSTGQILKLPDSSDEDTGSEAVPSREQTDLTGEGHGGADDEQDESTIQRQSRKRKISLLLQQQYGSSSSMVPSPIVPNKMRKQLAHEEHINNDGDNDDENSNNIESSPLKQGHHHPKGQADDNNEGPDEEESTKEVPKPGTIIHFSTNR
notes: Ask1 subunit of the S. cerevisiae Dam1 complex; Stood in the structure as part of the whole Dam1 complex; also called Ask1^B; source: as subunit of m2
B4: Dam1 subunit of the Dam1 complex (natural protein, S. cerevisiae, UniProt P53267 1-343, looked up)
chain: MSEDKAKLGTTRSATEYRLSIGSAPTSRRSSMGESSSLMKFADQEGLTSSVGEYNENTIQQLLLPKIRELSDSIITLDSNFTRLNFIHESLADLNESLGSLLYGIMSNSWCVEFSQAPHDIQDDLIAIKQLKSLEDEKNNLVMELSNMERGIKRKKDEQGENDLAKASQNKQFNQPLFPSSQVRKYRSYDNRDKRKPSKIGNNLQVENEEDYEDDTSSEASFVLNPTNIGMSKSSQGHVTKTTRLNNNTNSKLRRKSILHTIRNSIASGADLPIENDNVVNLGDLHPNNRISLGSGAARVVNGPVTKNRNSMFSGRAERKPTESRHSVAKKTEKKINTRPPFR
notes: Dam1 subunit of the S. cerevisiae Dam1 complex; Stood in the structure as part of the whole Dam1 complex; also called Dam1^Staple (residues 1-26); Dam1^C-ter; source: as subunit of m2
B5: Spc19 subunit of the Dam1 complex (natural protein, S. cerevisiae, UniProt Q03954 1-165, looked up)
chain: MTDALEQSVLALEGTVSVLKDSVESLKCANEPSTNLASTMLQTKRVFRLVPEYDVERSKLDLIEEVEPLVRTLGDKLRKSMGRMQRELDTLQQTYELNDLRLKKNISMDDDDALNSPDMGQEYEGRDADDVVMMASSTNEELEELKKLKEKKKQLENKLEILKQK
notes: Spc19 subunit of the S. cerevisiae Dam1 complex; Stood in the structure as part of the whole Dam1 complex; source: as subunit of m2
B6: Dad1 subunit of the Dam1 complex (natural protein, S. cerevisiae, UniProt Q12248 1-94, looked up)
chain: MMASTSNDEEKLISTTDKYFIEQRNIVLQEINETMNSILNGLNGLNISLESSIAVGREFQSVSDLWKTLYDGLESLSDEAPIDEQPTLSQSKTK
notes: Dad1 subunit of the S. cerevisiae Dam1 complex; Stood in the structure as part of the whole Dam1 complex; also called Dad1^A; source: as subunit of m2

Assays:
Experiment in all cases: cryo-EM structure; complexes assembled on cryo-EM grids by step-wise addition of taxol-stabilized microtubule filaments, Ndc80c and Dam1c; sub-boxing, signal subtraction and symmetry expansion for the separate reconstructions
Settings in all cases: both partners purified
[1] = target: T1, Ndc80 complex (Ndc80, Nuf2, Spc24, Spc25), budding yeast (S. cerevisiae, UniProt P40460 1-691; P33895 1-451; Q04477 1-213; P40014 1-221)
T1 construct: Ndc80 subunit of the budding yeast Ndc80 complex; Nuf2 subunit of the budding yeast Ndc80 complex; Spc24 subunit of the budding yeast Ndc80 complex; Spc25 subunit of the budding yeast Ndc80 complex; Complex used for cryo-EM; Spc24-Spc25 gave no cryo-EM density; copies: + + +
T1 sequence (P40460 whole entry, chain 1 of 4): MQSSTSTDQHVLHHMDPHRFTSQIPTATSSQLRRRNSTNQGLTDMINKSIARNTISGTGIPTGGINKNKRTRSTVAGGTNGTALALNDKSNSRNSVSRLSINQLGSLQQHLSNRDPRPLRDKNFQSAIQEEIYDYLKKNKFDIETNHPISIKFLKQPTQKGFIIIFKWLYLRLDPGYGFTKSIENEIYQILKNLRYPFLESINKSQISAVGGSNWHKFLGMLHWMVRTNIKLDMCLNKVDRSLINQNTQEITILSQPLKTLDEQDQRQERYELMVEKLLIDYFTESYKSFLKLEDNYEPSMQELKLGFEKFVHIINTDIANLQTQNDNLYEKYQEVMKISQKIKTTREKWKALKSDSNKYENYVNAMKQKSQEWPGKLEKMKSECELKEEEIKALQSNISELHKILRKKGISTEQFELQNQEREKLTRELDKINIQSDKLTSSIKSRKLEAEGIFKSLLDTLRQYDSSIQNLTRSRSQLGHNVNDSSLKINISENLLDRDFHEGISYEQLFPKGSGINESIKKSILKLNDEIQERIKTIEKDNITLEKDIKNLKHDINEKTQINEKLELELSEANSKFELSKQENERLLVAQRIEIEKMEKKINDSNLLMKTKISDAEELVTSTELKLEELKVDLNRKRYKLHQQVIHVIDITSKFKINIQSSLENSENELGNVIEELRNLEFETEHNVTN
T1 sequence (P33895 whole entry, chain 2 of 4): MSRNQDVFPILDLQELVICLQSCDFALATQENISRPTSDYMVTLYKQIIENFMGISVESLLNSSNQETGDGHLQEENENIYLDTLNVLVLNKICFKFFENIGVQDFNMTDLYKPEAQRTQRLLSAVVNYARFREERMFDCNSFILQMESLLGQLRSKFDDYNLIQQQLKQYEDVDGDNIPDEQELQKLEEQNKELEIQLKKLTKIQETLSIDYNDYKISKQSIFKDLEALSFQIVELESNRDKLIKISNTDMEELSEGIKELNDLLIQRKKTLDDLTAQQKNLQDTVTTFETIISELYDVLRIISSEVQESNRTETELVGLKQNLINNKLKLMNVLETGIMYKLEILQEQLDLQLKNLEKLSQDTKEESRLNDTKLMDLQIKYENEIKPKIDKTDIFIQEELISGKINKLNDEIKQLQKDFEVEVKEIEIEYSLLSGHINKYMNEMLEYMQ
T1 sequence (Q04477 whole entry, chain 3 of 4): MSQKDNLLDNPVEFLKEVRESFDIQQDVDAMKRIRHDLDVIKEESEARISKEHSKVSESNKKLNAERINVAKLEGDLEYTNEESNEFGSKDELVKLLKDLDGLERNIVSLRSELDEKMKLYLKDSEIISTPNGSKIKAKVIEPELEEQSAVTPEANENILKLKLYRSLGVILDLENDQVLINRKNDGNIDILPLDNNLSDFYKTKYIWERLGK
T1 sequence (P40014 whole entry, chain 4 of 4): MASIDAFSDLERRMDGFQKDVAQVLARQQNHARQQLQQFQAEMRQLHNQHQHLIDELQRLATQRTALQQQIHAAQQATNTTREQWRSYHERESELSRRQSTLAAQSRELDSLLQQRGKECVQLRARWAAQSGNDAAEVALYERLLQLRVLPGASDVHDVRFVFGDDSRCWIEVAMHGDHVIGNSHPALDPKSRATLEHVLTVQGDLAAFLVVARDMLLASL

[2] = target: B4
[3] = target: T2, Ndc80 subunit of the Ndc80 complex (S. cerevisiae, UniProt P40460 1-691)
T2 construct: Ndc80 subunit of the budding yeast Ndc80 complex; Stood in the structure as part of the Ndc80 complex; also called Ndc80^CH; Ndc80^CC; source: as subunit of m1
T2 sequence (P40460 whole entry, one chain of several): as the sequence (P40460 whole entry, chain 1 of 4) above

[4] = target: T3, Nuf2 subunit of the Ndc80 complex (S. cerevisiae, UniProt P33895 1-451)
T3 construct: Nuf2 subunit of the budding yeast Ndc80 complex; Stood in the structure as part of the Ndc80 complex; also called Nuf2^CH; Nuf2^CC; source: as subunit of m1
T3 sequence (P33895 whole entry, one chain of several): as the sequence (P33895 whole entry, chain 2 of 4) above

[5] = target: B1

Binder	binding result [2]	binding result [3]	also measured
B1			binding result [1]: binds
B2	binds		
B3	binds		
B4		binds	binding result [4]: binds
B5		binds	binding result [5]: binds
B6	binds		
